Measured values taken from patent publication US20210214414A1 (Pfizer, published 2021).

Tests used:
Rat SLIT2-N = biological target: T1, Rat SLIT2-N (rat, UniProt Q9WVC1 31-766, limits assumed); assay: SPR, ROBO2-Fc 2.2 captured by anti-human Fc on a C1 chip, rat SLIT2-N as analyte, 1:1 model
T1 construct: domain: SLIT2-N (N terminal fragment)
T1 sequence (looked up): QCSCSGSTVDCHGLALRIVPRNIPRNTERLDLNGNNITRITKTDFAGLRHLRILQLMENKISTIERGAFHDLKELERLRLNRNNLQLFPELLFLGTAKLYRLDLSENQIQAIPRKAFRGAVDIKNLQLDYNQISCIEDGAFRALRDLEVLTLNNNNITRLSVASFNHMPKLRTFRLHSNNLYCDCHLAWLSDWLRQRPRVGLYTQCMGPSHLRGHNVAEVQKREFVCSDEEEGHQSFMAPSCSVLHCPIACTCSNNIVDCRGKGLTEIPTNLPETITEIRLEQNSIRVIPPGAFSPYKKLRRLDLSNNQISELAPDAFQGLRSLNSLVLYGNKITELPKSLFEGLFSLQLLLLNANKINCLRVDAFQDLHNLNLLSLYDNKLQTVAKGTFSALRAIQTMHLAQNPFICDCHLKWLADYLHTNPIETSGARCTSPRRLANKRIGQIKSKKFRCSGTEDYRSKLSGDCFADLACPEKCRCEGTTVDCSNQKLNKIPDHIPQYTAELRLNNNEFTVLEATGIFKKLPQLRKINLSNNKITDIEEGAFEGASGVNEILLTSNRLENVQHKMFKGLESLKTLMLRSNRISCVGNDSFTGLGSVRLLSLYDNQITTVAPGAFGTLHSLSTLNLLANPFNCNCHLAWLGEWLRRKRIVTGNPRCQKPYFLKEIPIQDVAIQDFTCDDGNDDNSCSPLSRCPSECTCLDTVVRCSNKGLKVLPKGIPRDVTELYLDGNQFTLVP
Description: HBS-EP was used as a diluent. […] An 8 point 2-fold dilution series was performed on the SLIT2 ligands, ranging from 2 nM to 15.6 pM using HBS-EPB as the diluent. […] Association of the indicated SLIT2 ligand was followed for 120 s and dissociation monitored for 180 s. The apparent binding affinity was determined using a simple 1:1 interaction model of the kinetic rate constants.

Human SLIT3-N = biological target: T2, Human SLIT3-N (human, UniProt O75094 34-1119, limits assumed); assay: HTRF competition: d2-labelled human SLIT3-N binding to human ROBO2 on HEK293 cells; geometric mean, n=3
T2 construct: domain: SLIT3-N; d2-labelled in the HTRF assay
T2 sequence (looked up): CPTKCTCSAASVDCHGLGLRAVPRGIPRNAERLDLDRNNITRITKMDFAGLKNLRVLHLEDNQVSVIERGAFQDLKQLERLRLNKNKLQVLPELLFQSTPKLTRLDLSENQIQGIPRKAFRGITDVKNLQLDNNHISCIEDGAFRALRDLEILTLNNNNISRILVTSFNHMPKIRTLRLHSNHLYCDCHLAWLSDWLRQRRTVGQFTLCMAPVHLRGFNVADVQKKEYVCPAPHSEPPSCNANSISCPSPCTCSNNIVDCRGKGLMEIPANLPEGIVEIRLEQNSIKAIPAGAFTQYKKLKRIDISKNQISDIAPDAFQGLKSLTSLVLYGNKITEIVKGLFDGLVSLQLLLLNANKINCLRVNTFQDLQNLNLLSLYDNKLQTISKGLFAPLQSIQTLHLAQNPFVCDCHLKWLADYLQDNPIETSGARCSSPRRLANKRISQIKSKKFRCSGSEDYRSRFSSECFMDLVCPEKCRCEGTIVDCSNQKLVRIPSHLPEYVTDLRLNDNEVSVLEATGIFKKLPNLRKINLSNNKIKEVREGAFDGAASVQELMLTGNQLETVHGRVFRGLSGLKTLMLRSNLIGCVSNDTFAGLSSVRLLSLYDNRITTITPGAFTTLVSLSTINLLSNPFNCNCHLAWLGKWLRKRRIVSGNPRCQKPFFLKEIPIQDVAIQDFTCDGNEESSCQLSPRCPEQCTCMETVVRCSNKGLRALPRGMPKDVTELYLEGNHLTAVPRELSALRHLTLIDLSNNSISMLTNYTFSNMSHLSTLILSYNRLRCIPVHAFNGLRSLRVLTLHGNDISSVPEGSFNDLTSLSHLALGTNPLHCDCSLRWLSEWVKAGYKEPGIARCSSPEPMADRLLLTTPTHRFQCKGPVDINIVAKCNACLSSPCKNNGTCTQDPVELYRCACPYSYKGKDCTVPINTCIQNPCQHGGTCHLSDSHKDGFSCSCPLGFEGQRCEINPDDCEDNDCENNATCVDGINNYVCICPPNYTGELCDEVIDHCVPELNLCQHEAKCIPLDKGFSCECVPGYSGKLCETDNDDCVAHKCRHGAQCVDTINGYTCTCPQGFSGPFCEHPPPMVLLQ
Description: After incubation, fluorescence at 665 nm and 620 nm was measured on an Envision multilabel plate reader. The HTRF Ratio was calculated as follows: fluorescence at 665 nm/fluorescence at 620 nm×10,000. […] The IC₅₀ for each SLITx-N was determined using an 11-point, 4-fold dilution series with a top concentration of 4000 nM.

B1: ROBO2-Fc 2.2 (Fc fusion)
chain: SRLRQEDFPPRIVEHPSDVIVSKGEPTTLNCKAEGRPTPTIEWYKDGERVETDKDDPRSHRMLLPSGSLFFLRIVHGRRSKPDEGSYVCVARNYLGEAVSRNASLEVALLRDDFRQNPTDVVVAAGEPAILECQPPRGHPEPTIYWKKDKVRIDDKEERISIRGGKLMISNTRKSDAGMYTCVGTNMVGERDSDPAELTVFERGGSGGSEPKSSDKTHTCPPCPAPEAAGAPSVFLFPPKPKDTLMISRTPEVTCVVVDVSHEDPEVKFNWYVDGVEVHNAKTKPREEQYNSTYRVVSVLTVLHQDWLNGKEYKCKVSNKALPAPIEKTISKAKGQPREPQVYTLPPSREEMTKNQVSLTCLVKGFYPSDIAVEWESNGQPENNYKTTPPVLDSDGSFFLYSKLTVDKSRWQQGNVFSCSVMHEALHNHYTQKSLSLSPG
notes: Labelled with Alexa Fluor 647 in the flow cytometry assay; also called ROBO-Fc 2.2; ROBO2-Fc 2.2-AF647
- Kd (Rat SLIT2-N): 0.543 nM
- IC50 (Human SLIT3-N): 5.1 nM
